One sequence from patent US11787839B2, “Targeting α2δ-1-bound glutamate receptors for treating diseases and disorders” (Board of Regents, The University of Texas System, priority 2017, dated 2023) can be followed below.

Test [1] has as its target T1, α2δ-1 and NMDAR subunits in spinal cord synaptosomes (Rattus norvegicus, UniProt P35439+Q00959+Q00960).
T1 construct: from tissue; host or cells: rat lumbar spinal cord slices (lamina II neurons) and synaptosomes made from them
The experiment in a line: Protein levels in spinal cord synaptosomes of treated slices (SNL, sham). In kind it is cell-based. Particulars: slices treated 30 min. The method, then:
PSD-95, a known postsynaptic protein, was used as an internal control.
Spinal cord synaptosome preparation: The spinal cord slices were pooled from 2 rats and were homogenized using glass-Teflon homogenizer in 10 volumes of ice-cold HEPES-buffered sucrose (0.32 M sucrose, 1 mM EGTA, and 4 mM HEPES at pH 7.4) containing the protease inhibitor cocktail (Sigma-Aldrich). The homogenate was centrifuged at 1,000×g for 10 min at 4° C. to remove the nuclei and large debris. […] The synaptosomal pellet was lysed via hypo-osmotic shock in 9 volumes of ice-cold HEPES-buffer with the protease inhibitor cocktail for 30 min. The lysate was centrifuged at 25,000×g for 20 min at 4° C. to obtain the synaptosomal membrane fraction, which was then dissolved in sodium dodecyl sulfate sample buffer at a final concentration of 0.25 μg/μl for immunoblotting. […] The α2δ-1Tat peptide and scrambled control peptide were synthesized by Bio Basic Inc. (Marham, Ontario, Canada) and validated by using liquid chromatography and mass spectrometry.

In test [2] the target is T2, NMDARs of hippocampal CA1 pyramidal neurons (Mus musculus, UniProt O08532+P35438).
T2 construct: from tissue; host or cells: mouse brain slices (hippocampal CA1, hypothalamic PVN, brain tissue membrane extracts)
Briefly: Puff NMDAR currents of hippocampal CA1 neurons, oxygen-glucose deprivation (OGD). In kind it is cell-based. Particulars: 5 min OGD; gabapentin 30 or 100 μM, peptides 1 μM, 60 min. The method, then: Brain slice preparation and recording. The tissues containing the hippocampus were sliced sagittally (300 μm thick) using a vibratome. […] NMDAR currents of pyramidal neurons in the hippocampal CA1 region were recorded by puff application of 100 μM NMDA directly to the recorded neuron at a holding potential of −60 mV.

In test [3] the target is T3, NMDARs of spinally projecting PVN neurons (Rattus norvegicus, UniProt P35439+Q00959+Q00960).
T3 construct: from tissue; host or cells: rat hypothalamic slices containing the PVN (Sprague-Dawley, WKY, SHR) and synaptosomes made from them
Briefly: Recordings of spinally projecting PVN neurons in rat brain slices (Ang II). It is filed as cell-based. The conditions noted are these: losartan 2 μmol/L, pregabalin 20 μmol/L, peptides 1 μmol/L. From the text: Retrograde labeling of spinally projecting PVN neurons: Rats or mice were anesthetized with 2-3% isoflurane, and their spinal cords at the T1-T4 level were exposed through dorsal laminectomy. A fluorescent microsphere suspension (FluoSpheres, 0.04 μm; Molecular Probes, Invitrogen, Eugene, Oreg.) was pressure ejected (Nanoject II Microinjectors, Drummond Scientific Company, Broomall, Pa.) bilaterally into the IML region of the spinal cord in six separate 50-nl injections using a glass micropipette (tip diameter, 20-30 μm). […] The wound was closed with sutures after injection. Animals were returned to their cages for 4-7 days, which was sufficient time to permit the tracer to be retrogradely transported to the PVN. The animals were inspected daily for motor activity, signs of infection, and food and water intake.
Brain slice preparation: Four to seven days after fluorescent tracer injection, the animals were anesthetized with isoflurane and rapidly decapitated. […] Coronal slices (thickness, 300 μm) containing the PVN were cut from the tissue block in the ice-cold aCSF. […] The brain slices were placed in a glass-bottom chamber and continuously perfused with aCSF at 3.0 ml/min at 34° C. maintained by an inline solution heater and temperature controller.
The labeled PVN neurons were briefly identified with the aid of epifluorescence illumination, and whole-cell recordings from labeled PVN neurons were performed under differential interference contrast optics on an upright microscope (BX50 WI; Olympus Optical, Tokyo, Japan). Recordings of postsynaptic currents began 5 min after the whole-cell access was established and the current reached a steady state.
Signals were processed with an […] amplifier (Axon Instruments, Foster City, Calif.). A liquid junction potential of 15 mV (for the potassium gluconate pipette solution) was corrected during off-line analysis.
Postsynaptic NMDAR currents were elicited by puff application of 100 μmol/L NMDA to the recorded neuron using a positive pressure system (4 p.s.i., 50 ms; Toohey Company, Fairfield, N.J.). The tip of the puff pipette was placed 150 μm from the recorded neuron. […] The NMDAR current data presented in the manuscript were the average of 3 consecutive currents elicited by repeated puff NMDA. The neuron was discarded if the current was not stable.
Ang II, losartan, and NMDA were obtained from Sigma (St. Louis, Mo.). The α2δ-1Tat peptide and scrambled control peptide were synthesized by Bio Basic Inc. (Markham, Ontario, Canada) and validated by liquid chromatography and mass spectrometry. […] All drugs were prepared immediately before the experiments and applied to the slice chamber. The brain slices were first pretreated with Ang II, losartan, α2δ-1Tat peptide, or control peptide in the slice incubation chamber before recording. For electrophysiological recording, the treatment agents were immediately removed and the brain slice transferred to a separate recording chamber.

In another test the test system is anesthetized rats. Briefly: PVN microinjection and recording of RSNA and ABP (Ang II). It is filed as in vivo, rat. Particulars: peptides 100 μmol/L, 50 nl. The method, then:
PVN microinjection and recording of renal sympathetic nerve activity: Rats were anesthetized with a mixture of α-chloralose (60 mg/kg, i.p.) and urethane (800 mg/kg, i.p.). A retroperitoneal incision was made, and a branch of the left renal postganglionic sympathetic nerve was isolated under a surgical microscope. The renal sympathetic nerve was cut distally to ensure that afferent nerve activity was not recorded. The renal sympathetic nerve activity (RSNA), arterial blood pressure (ABP), and heart rate (HR) were recorded using a 1401-PLUS analog-to-digital converter and Spike2 system (Cambridge Electronic Design, Cambridge, UK). A microinjection pipette (tip diameter, 20-30 μm) was advanced into the PVN according to the following stereotactic coordinates: 1.6-2.0 mm caudal to the bregma, 0.5 mm lateral to the midline, and 7.0-7.5 mm ventral to the dura. The microinjection was done using a calibrated microinjection system (Nanoject II; Drummond Scientific) and monitored using a surgical microscope as described previously (Li and Pan, 2006, 2007; Qiao et al., 2017). Ang II (200 μmol/L, 50 nl) was microinjected into the PVN to observe the change in RSNA and ABP in the absence or presence of α2δ-1Tat peptide (100 μmol/L, 50 nl) or control peptide (100 μmol/L, 50 nl). The microinjections were separated by 10- to 15-min intervals to allow recovery of the response. To determine the location of the injection site and diffusion of the drugs in the PVN, 5% rhodamine-labeled fluorescent microspheres (0.04 μm; Molecular Probes) were included in the injection solution (Li and Pan, 2006, 2007; Qiao et al., 2017).

Test [4] addresses T4, presynaptic NMDARs of spinal dorsal horn neurons (Rattus norvegicus, UniProt P35439+Q00959+Q00960).
T4 construct: from tissue; host or cells: rat lumbar spinal cord slices (lamina II neurons) and synaptosomes made from them
The experiment in a line: Spinal cord slice recordings, morphine-treated rats. It is filed as cell-based. The conditions noted are these: AP5 50 μM, gabapentin 100 μM, peptides 1 μM for 60 min. The protocol: Spinal cord slice preparation and electrophysiological recordings: The lumbar spinal cord was rapidly removed through laminectomy from the animals anesthetized with isoflurane. […] The spinal cord tissue was then placed in a shallow groove formed in an agar block and glued onto the stage of a vibratome (Leica, Germany).
All signals were recorded using an amplifier (MultiClamp700B; Axon Instruments Inc., Union City, Calif.), filtered at 1-2 kHz, and digitized at 10 kHz.

Test [5] addresses T5, NMDARs of RVLM-projecting PVN neurons (Rattus norvegicus, UniProt P35439+Q00959+Q00960).
T5 construct: from tissue; host or cells: rat hypothalamic slices containing the PVN (Sprague-Dawley, WKY, SHR) and synaptosomes made from them
The experiment in a line: Recordings of RVLM-projecting PVN neurons in slices of WKY rats and SHRs. In kind it is cell-based.

The target in test [6] is presynaptic NMDARs of spinal lamina II neurons (Rattus norvegicus, UniProt P35439+Q00959+Q00960).
Setting [7] is: paclitaxel-treated rats, AP5 50 μM, pregabalin 20 μM, peptides 1 μM.
The mark [8] stands for this setting: vehicle-treated rats, AP5 50 μM, pregabalin 20 μM, peptides 1 μM.

presynaptic NMDARs of spinal lamina II neurons, sequence (Q00959 20-1464 limits assumed, other chains not shown): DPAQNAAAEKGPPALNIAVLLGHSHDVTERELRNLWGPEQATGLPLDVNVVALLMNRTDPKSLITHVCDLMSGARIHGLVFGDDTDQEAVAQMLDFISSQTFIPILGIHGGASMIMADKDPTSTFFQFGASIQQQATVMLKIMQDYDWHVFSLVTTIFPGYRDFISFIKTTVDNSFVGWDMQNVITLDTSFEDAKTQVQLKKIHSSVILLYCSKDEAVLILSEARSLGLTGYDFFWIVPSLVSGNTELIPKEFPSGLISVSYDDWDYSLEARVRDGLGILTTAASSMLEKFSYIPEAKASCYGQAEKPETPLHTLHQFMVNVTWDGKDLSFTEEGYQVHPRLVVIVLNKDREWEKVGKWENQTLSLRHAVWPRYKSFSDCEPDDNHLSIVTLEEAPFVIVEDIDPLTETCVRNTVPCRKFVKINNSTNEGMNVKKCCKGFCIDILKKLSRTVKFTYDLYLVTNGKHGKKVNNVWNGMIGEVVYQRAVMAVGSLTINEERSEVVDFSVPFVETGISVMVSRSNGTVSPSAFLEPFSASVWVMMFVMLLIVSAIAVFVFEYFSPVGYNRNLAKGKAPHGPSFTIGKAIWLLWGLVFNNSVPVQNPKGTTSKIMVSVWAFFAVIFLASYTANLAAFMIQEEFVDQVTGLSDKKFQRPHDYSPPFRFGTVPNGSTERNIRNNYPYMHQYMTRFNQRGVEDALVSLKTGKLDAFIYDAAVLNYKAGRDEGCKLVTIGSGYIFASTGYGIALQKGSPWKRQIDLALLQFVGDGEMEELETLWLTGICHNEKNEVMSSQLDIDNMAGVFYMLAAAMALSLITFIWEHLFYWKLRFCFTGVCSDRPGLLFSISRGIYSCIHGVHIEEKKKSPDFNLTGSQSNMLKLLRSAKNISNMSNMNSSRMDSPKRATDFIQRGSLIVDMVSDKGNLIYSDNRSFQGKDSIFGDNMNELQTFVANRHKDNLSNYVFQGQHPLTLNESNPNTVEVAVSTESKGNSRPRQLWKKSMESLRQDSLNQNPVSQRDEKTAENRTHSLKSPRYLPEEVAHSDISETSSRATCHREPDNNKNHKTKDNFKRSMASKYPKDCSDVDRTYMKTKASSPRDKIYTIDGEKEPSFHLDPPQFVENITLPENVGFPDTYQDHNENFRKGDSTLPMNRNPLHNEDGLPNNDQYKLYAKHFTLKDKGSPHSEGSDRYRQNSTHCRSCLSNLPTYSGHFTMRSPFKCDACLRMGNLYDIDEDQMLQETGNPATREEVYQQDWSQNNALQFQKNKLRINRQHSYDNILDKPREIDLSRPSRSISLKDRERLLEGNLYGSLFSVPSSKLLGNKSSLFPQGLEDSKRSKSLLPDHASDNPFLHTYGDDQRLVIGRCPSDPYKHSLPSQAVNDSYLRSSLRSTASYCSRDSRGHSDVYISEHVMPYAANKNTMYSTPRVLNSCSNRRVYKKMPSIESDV
presynaptic NMDARs of spinal lamina II neurons, sequence (Q00960 27-1482, other chains not shown): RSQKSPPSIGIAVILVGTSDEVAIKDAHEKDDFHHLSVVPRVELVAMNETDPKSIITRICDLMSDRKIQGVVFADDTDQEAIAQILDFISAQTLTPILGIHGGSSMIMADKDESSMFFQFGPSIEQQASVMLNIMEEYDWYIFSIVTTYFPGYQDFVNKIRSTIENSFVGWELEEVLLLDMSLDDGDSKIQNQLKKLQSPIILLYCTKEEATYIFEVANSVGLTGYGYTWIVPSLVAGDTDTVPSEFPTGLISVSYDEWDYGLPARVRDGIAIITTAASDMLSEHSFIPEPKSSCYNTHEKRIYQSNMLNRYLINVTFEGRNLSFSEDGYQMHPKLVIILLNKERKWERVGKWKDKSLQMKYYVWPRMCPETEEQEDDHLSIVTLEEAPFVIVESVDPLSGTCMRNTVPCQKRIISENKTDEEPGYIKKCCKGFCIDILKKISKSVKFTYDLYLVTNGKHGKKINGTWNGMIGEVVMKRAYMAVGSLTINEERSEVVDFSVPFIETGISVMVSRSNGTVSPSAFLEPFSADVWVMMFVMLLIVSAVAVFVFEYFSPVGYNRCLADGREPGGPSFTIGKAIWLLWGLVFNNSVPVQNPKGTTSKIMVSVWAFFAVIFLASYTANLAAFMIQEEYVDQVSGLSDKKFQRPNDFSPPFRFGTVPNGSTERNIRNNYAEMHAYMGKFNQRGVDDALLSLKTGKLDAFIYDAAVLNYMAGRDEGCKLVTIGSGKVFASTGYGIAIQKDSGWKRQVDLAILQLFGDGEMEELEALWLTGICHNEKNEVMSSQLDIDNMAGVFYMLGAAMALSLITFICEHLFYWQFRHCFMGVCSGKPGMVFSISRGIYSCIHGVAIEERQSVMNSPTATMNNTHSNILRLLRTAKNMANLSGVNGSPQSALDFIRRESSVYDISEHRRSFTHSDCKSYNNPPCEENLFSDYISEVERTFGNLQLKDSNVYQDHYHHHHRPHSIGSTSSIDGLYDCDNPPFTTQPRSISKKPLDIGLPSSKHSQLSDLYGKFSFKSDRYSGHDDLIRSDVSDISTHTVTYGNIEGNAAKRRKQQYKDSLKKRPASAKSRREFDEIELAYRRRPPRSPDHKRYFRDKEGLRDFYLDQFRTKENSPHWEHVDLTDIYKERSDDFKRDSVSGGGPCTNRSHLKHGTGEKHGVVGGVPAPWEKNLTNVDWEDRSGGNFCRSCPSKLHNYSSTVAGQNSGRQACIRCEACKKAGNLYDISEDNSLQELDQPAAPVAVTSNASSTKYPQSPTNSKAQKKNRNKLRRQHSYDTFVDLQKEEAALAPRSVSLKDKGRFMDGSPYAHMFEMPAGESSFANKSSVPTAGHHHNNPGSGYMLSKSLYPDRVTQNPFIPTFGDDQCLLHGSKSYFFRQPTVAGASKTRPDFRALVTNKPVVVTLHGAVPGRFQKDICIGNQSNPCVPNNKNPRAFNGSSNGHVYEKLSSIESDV
T2 sequence (O08532 25-956 limits assumed, other chains not shown): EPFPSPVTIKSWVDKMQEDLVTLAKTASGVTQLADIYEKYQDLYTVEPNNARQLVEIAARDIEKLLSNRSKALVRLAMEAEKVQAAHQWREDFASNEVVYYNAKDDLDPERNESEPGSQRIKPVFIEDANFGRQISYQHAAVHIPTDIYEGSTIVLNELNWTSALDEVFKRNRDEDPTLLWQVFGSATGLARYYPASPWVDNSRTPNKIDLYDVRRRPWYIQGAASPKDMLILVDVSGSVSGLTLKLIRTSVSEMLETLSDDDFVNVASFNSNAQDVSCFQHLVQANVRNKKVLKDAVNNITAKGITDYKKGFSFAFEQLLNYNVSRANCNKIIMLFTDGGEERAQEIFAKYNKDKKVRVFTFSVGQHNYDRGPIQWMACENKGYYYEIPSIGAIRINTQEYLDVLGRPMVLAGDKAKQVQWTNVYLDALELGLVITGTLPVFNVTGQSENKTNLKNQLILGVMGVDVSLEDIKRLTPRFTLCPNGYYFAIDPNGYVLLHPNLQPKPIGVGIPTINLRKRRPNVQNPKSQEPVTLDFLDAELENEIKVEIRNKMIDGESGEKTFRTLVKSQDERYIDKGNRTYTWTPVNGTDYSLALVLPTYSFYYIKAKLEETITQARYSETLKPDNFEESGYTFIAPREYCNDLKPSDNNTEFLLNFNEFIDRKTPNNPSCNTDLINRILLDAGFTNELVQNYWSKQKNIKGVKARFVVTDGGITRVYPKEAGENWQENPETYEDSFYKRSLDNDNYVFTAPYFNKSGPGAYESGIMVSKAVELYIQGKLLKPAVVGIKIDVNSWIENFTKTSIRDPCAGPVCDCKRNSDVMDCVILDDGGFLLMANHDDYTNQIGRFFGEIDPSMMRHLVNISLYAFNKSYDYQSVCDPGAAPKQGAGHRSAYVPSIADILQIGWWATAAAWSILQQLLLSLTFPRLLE

With “FGLGWQPWSLSFYLVWSGLILSVLHLIRSN (Control peptide)”, the “increased protein levels of GluN1, GluN2A, GluN2B and α2δ-1 in spinal cord synaptosomes” value in test [1] (SNL rats) was “had no such effects”. In addition, the “protein levels of GluN1, GluN2A, GluN2B and α2δ-1 in spinal cord synaptosomes” value in test [1] (sham rats) is “had no such effects”. In addition, in test [2], the “OGD-induced increase in the puff NMDAR currents” value is recorded as “did not alter”. Moreover, the “effect of Ang II on mEPSC frequency in pretreated slices” value in test [3] was “did not affect”. In addition, in test [3] (30 min), the “effect of Ang II on puff NMDA currents in pretreated slices” value is given as “significantly increased”. For the same sequence, the “ABP and RSNA responses to Ang II after prior peptide microinjection into the PVN” value with anesthetized rats is reported as “not altered”. In test [4], the “amplitude of monosynaptic evoked EPSCs” value is listed as “did not affect”. Besides, in test [5] (SHRs), the “puff NMDA currents of labelled PVN neurons” value was “had no effect” and the “ratio of NMDAR-EPSCs to AMPAR-EPSCs” value is listed as “did not affect”. In addition, the “baseline frequency of mEPSCs of labelled PVN neurons” value in test [5] (SHRs, AP5 50 μmol L-1, gabapentin 100 μmol L-1, peptides 1 μmol L-1, 60 min) is given as “had no effect”. Besides, the “amplitude of evoked NMDAR-EPSCs of labelled PVN neurons” value in test [5] (SHRs, gabapentin 100 μmol L-1, peptides 1 μmol L-1, 60 min) is “did not affect”. Further, in test [5] (WKY rats), the “amplitude of puff NMDA currents” value is recorded as “had no effect”, the “frequency or amplitude of mEPSCs of labelled PVN neurons” value is given as “had no effect” and the “ratio of NMDAR-EPSCs to AMPAR-EPSCs” value is “did not affect”. For the same sequence, the “amplitude of evoked AMPAR-EPSCs of labelled PVN neurons” value in test [5] (WKY rats or SHRs) is “did not affect”. In test [5] (WKY rats, gabapentin 100 μmol L-1, peptides 1 μmol L-1, 60 min), the “amplitude of evoked NMDAR-EPSCs of labelled PVN neurons” value is “did not affect”. In test [6] (setting [7]), the “increased amplitude of evoked monosynaptic EPSCs” value was “did not significantly alter” and the “increased frequency of mEPSCs of lamina II neurons” value is “did not affect”. For the same sequence, in test [6] (vehicle-treated rats), the “PPR of evoked EPSCs” value was “had no effect”. Also, in test [6] (setting [8]), the “amplitude of evoked monosynaptic EPSCs” value is listed as “did not significantly alter” and the “frequency of mEPSCs of lamina II neurons” value is listed as “did not affect”.
